Assay results: PMC3439350

Molecular target: yAsf1*^532 (full-length yeast Asf1, residues 1 to 279, labeled at position -1 with Alexa Fluor 532) (S. cerevisiae) (UniProt P32447)
Test: other fluorescence titration; fluorescence quenching: unlabeled histones titrated into 1 nM yAsf1*^532; 20°C; 150 mM KCl, 2 mM MgCl2, 10 mM Tris-HCl pH 7.5, 1% glycerol, 0.05% Brij-35, 0.5 mM TCEP; ligand-depleted binding model

Kd: 400 pM
Substance: H3/H4^∆94 (Xenopus laevis, H3 C110A and H4 T71C Δ94-102) (from UniProt P84233 1-136; P62799 1-94) (complex)
